Experiments:
[1] = tested on: MS2 coat protein; assay: apparent KD of MS2 coat protein; higher = weaker reporter binding; details: Eterna round: R107
Description: (§1)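 RNA-MaP round R107: designed RNA switches with theophylline, tryptophan, arginine or FMN aptamers are transcribed on-chip within common flanks. They are titrated with SNAP-549-labelled MS2 coat protein in RNA-MaP buffer (100 mM Tris pH 7.5, 80 mM KCl, 4 mM MgCl2), without ligand or with the indicated ligand. Median apparent KD per design.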

[2] = tested on: K4 kissing-loop RNA reporter; assay: apparent KD of K4 kissing-loop reporter; higher = weaker reporter binding; details: Eterna round: R107;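 also: bound reporter read as fluorescence of individual clusters on recovered sequencing chips by microscopy, with normalized cluster intensities fitted with a binding model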
Description: as §1, with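 “a labelled K4 kissing-loop RNA reporter” for “SNAP-549-labelled MS2 coat protein”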

[3] = input ligand: theophylline 20 uM
[4] = input ligand: theophylline 2 mM
[5] = input ligand: tryptophan 2.4 mM

| Sequence | apparent KD of MS2 coat protein ([1]; input ligand: arginine 13.2 mM) | apparent KD of MS2 coat protein ([1]; input ligand: none) | apparent KD of MS2 coat protein [1, 3] | apparent KD of MS2 coat protein [1, 4] | apparent KD of MS2 coat protein [1, 5] | apparent KD of K4 kissing-loop reporter ([2]; input ligand: FMN 200 uM) | apparent KD of K4 kissing-loop reporter ([2]; input ligand: arginine 13.2 mM) | apparent KD of K4 kissing-loop reporter ([2]; input ligand: none) | apparent KD of K4 kissing-loop reporter [2, 3] | apparent KD of K4 kissing-loop reporter [2, 5] |
| --- | --- | --- | --- | --- | --- | --- | --- | --- | --- | --- |
| GUCGCUGAGGGAAGGAGCGUGAAGACAUGAGGAUCACCCAUGUAGAGGCGCCGAAGGCGUUCGCAGGUAGGUCGCCCUCAGUGAA [#1 Same State - Arginine B Attempt #25 (HarryS)] | 12.4 nM | 14.1 nM | 22.1 nM | 16.1 nM | 15.1 nM |  |  |  |  |  |
| UUCUACAUGAGGAUCACCCAUGUGGGUGAUACCAGCACUUUUUGGUGCCCUUGGCAGCACAUGAGAAUACCGUACGAUCGGCGAU [Arainbi] | 122 nM |  | 500 nM |  | 609 nM |  |  |  |  |  |
| AUGCGGUGCGGAAGGAGCGAGUUUGCCUAUUACAUGAGGAUCACCCAUGUGGGUAAUGGGACUCAGGUAGGUCGCCGUUGUCGCA [Same State Arginine B GF 28] | 41.9 nM | 57.5 nM | 77.9 nM | 65.1 nM | 50.1 nM |  |  |  |  |  |
| UUACAUGAGGAUCACCCAUGUCAUACAGAAGGAGCGUCACAUAAGACAGGUAGGUCGCUGUUAUUUUUUACUAUUAUAUCCUCUA [JR_Nu_ExcArginiA_Sub030] | 25 nM | 30.8 nM | 45.8 nM | 31.7 nM | 25.9 nM |  |  |  |  |  |
| CGUUGGUGUGGAGACAUAUUGAUGACUGAAGGAGCGGGAAUAAACCCAGGUAGGUCGCAGAGAUCCACAUGAGGAUCACCCAUGU [!0.R] | 26.3 nM | 73.1 nM | 74.9 nM | 154 nM | 49.5 nM |  |  |  |  |  |
| AAACGUUGCUGCGAUACCAGACAUGAGGAUCACCCAUGUACCAAGGUACGAAUAUAACAUGUCCCUUGGCAGCGCAGCAACGAAA [MAT - Exclusion Theophlline B - Mod of Eli - D7] | 17.5 nM |  | 22.7 nM |  | 13.6 nM |  |  |  |  |  |
| ACAUGAGGAUCACCCAUGUAAUGGCACGAUACCAGCUGAUCCCGUGGCCCUUGGCAGCGUCCGGUGUGGUCCGGCGGGUUGGACG [LLLMULLIN] | 14.5 nM | 14.5 nM | 22.6 nM | 34.5 nM | 17.4 nM |  |  |  |  |  |
| UGAUGGAACGGAAGGAGCGUGUAAGAACAAGAACAUGAGGAUCACCCAUGUAUUAAUUUAACACAGGUAGGUCGCCGAGAUAUUG [11.E] | 19.8 nM | 14.5 nM | 23.1 nM | 17.3 nM | 13.5 nM |  |  |  |  |  |
| UGUAUGUGAUCUGAUACCAGCGUUGAUAACCUGAGGAUCACCCUGGUAAGGCGAAAGCCACGCCCUUGGCAGCAGAUCGCAUACU | 158 nM |  | 79.1 nM | 19.8 nM | 239 nM |  |  |  |  |  |
| UCCUCCUCCGCAAGGAGGAGGAGUUGCGAUACCAGCACGGCAACGUGCCCUUGGCAGCGCACAUGAGGAUCACCCAUGUCAUGUU [#1 Exclusion - Theophylline A Attempt #10 (HarryS)] | 15.5 nM |  | 29.5 nM |  | 18.8 nM |  |  |  |  |  |
| GCUGCUUUGGGAAGGAGCGCUGCGUUAUCAUGUUGGACAUGAGGAUCACCCAUGUAAAUGUAGCAGGUAGGUCGCUUAGGGCAGC [EAP NP+V+V2 #15] | 40.8 nM | 31.8 nM | 46 nM | 29.7 nM | 37.1 nM |  |  |  |  |  |
| UGAGAGACCAGAAGGAGCGACAUGAGGAUCACCCAUGUCUCCCGUUAUGGGAGUUCUUUAGGUCAGGUAGGUCGCUGGUCUCUCA [#1 Exclusion - Arginine B Attempt #8 (Inspired by Omei)] | 59.9 nM | 132 nM | 120 nM | 149 nM | 87.8 nM |  |  |  |  |  |
| GGCUCCAGCCGAAGGAGCGCUAGAAGGUGACAUGAGGAUCACCCAUGUGUGUGAUGUGGCUAGCAGGUAGGUCGCGGAGGAGCUU [Exclusion - Arginine B (Freestyle 19)] | 62.5 nM | 64.5 nM | 108 nM | 90.6 nM | 71.1 nM |  |  |  |  |  |
| UCGCCAUUGACGGCCGCCACUCAAUGGUCUUCUCUGAACAUAAUUAACAUGAGGAUCACCCAUGUGAGGACCGGGUCGGUUAGAC [theeternabot_exclusion_MS2_Trp_B_24] | 17.4 nM |  | 23.5 nM | 20.4 nM |  |  |  |  |  |  |
| CAUGCGGCUAGUGAGCGUGGUGAGUAAAGGCGAGGACCGGUACGGCCGCCACUCGAGGCAAGACAUGAGGAUCACCCAUGUUGUA [theeternabot_exclusion_MS2_Trp_A_27] | 10.8 nM |  | 19.3 nM | 15.9 nM |  |  |  |  |  |  |
| AGCCGCGUUCUUUCUUUCUUUCUAGCGGCACGAGGACCGGUACGGCCGCCACUCGCCCACAUGAGGAUCACCCAUGUAGUGGGUG [The One Ring #2] | 18.5 nM |  | 27.7 nM | 23.9 nM |  |  |  |  |  |  |
| UAUAUACAUUUAUUAAUUAAAGGUUCAGAAGGAGCGUGAAUUAACACAGGUAGGUCGCUGAGCGAGUGAUGUUCGCUAUAUGGUA [JR_ExcArginiA_Sub005] |  |  |  |  |  | 66.3 nM | 72.6 nM | 70.5 nM | 87.1 nM | 55.7 nM |
| UUGCAAGAGUCGGCCGCCACUCCGGGCCCUAUAAAUGGGCGCAGUGAUGUUGCGGCUAGGCCUCUGAGGACCGGGACUUUGUAGC [Ateusraor] |  |  |  |  |  | 51 nM | 55.4 nM | 78.5 nM | 82.9 nM | 111 nM |
| UGGGAUGUUAAAGGAUAUAGCAAGUGAUAUAAGAAAGUGAGUGAUGUUGAUGUAGGUGAUGAUAUGUUAGAAGGUUAACAAAACG [abcdefg] |  |  |  |  |  | 350 nM | 217 nM | 356 nM | 294 nM | 257 nM |
| CACUCGGUAUCAGAUACCAGACUAACGAUACCGAGUGUAUCGGGUAGUGAUGUUACCAUAGUCCCUUGGCAGCUGAUAUACCAUA [Theo B SS t9] |  |  |  |  |  | 249 nM | 242 nM | 265 nM | 269 nM | 223 nM |
| GGAAGGAAGGGAAGGAGCGCGCAGGCAGUGAUGUUGCCAAACAAAACAAACAAAACAAAAGCGCAGGUAGGUCGCCCGAAGGACG |  |  |  |  |  | 67.8 nM | 92.8 nM | 89.7 nM | 126 nM | 62.9 nM |

Reference: the supplement of paper PMC9170038
